Laboratory results: patent publication US12121554B2 (priority 2018, dated 2024)

Assays:
[1] = test system: CD19-specific CAR T cells; type: cell-based; details: recombinant murine IFNβ in IL2
Protocol: FIGS. 8A-8D. CD19 CAR T cells treated with IFNβ in vitro. EGFRvIII-specific CAR T cells (with the scFv 139) and CD19-specific CAR T cells (with the scFv FMC63) were cultured in IL2 in the absence or presence of recombinant murine IFNβ, and CAR expression on the surface was measured using Biotin-Protein L and recognized with streptavidin-PE (Protein L+SA PE). Representative staining is shown in FIG. 8A, and the mean of three technical replicates was quantified in FIG. 8B. FIG. 8C: Representative expression of the activation markers CD25 and CD69 were shown for CAR T cells cultured as in FIG. 8A. FIG. 8D: Inhibitory receptor expression (PD1, LAG3, and TIM3) was quantified on CD8 CAR T or UTD cells cultured as in FIG. 8A. Average expression of three technical replicates is shown.

[2] = test system: CD8 CAR T cells; type: cell-based, murine

B1: recombinant IFNβ: recombinant murine interferon β added to CAR T cell cultures (protein, UniProt P01575 22-182, looked up)
Interferon beta: INYKQLQLQERTNIRKCQELLEQLNGKINLTYRADFKIPMEMTEKMQKSYTAFAIQEMLQNVFLVFRNNFSSTGWNETIVVRLLDELHQQTVFLKTVLEEKQEERLTWEMSSTALHLKSYYWRVQRYLKLMKYNSYAWMVVRAEIFRNFLIIRRLTRNFQN
[1]
  CAR expression on the surface of CD19-specific CAR T cells: promoted higher expression levels of the CAR molecule
  activation phenotype (CD25, CD69) of CD19-specific CAR T cells: supported an activated phenotype
  inhibitory receptor expression of CD19-specific CAR T cells over untransduced cells: not associated with increased levels of inhibitory receptor expression
[2]
  CAR expression on the surface of transduced CD8 T cells: dose-dependent increase was observed in CAR expression
  expression of the exhaustion markers Lag3, PD1, and Tim 3: dose dependent increase in expression of the exhaustion markers Lag3, PD1, and Tim 3
  proportion of AnnexinV positive apoptotic cells: dose-dependent increase in the proportion of AnnexinV positive apoptotic cells
  proportion of triple positive cells (Lag3, PD1, Tim3): dramatically increased by IFNβ between 0 and 1 ng/mL, and plateaued at higher doses
